Patent EP4763865A1
Where two headings read alike, the source gives them in different places.

Experiments:
[1] = target: Human c-MET, His Tag (Sino Biological, Cat. No. 10692-H08H) (human) (UniProt P08581); assay: ELISA, coated human c-MET His Tag, 4-parameter fit
[2] = target: human c-MET on Hs746T human gastric cancer cells (human) (UniProt P08581); assay: flow cytometry on Hs746T cells, 4-parameter fit
[3] = target: human c-MET on Hs746T human gastric cancer cells (human) (UniProt P08581); assay: flow cytometry on Hs746T cells, PE secondary antibody, 4-parameter fit
[4] = target: human c-MET on Hs746T human gastric cancer cells (human) (UniProt P08581); assay: cell-based or functional assay
[5] = target: human c-MET on Hs746T human gastric cancer cells (human) (UniProt P08581); assay: cell-based or functional assay; remark: listed apart in the source
[6] = target: human c-MET antigen (human) (UniProt P08581); assay: ELISA, E. coli lysate supernatant of clone on human c-MET antigen
[7] = target: human c-MET antigen (human) (UniProt P08581); assay: ELISA OD450 of clone supernatant divided by PBS blank

| Bottom [1] | EC50 [1] | Top [1] | Bottom [2] | EC50 [2] | Top [2] | Bottom [3] | EC50 [3] | Top [3] | OD450 [6] | Unique seq/PBS (fold over PBS) [7] | Molecule | Fab-ZAP endocytosis-mediated cell killing, Bottom (killing rate %) [4] | Fab-ZAP endocytosis-mediated cell killing, EC50 [4] | Fab-ZAP endocytosis-mediated cell killing, Top (killing rate %) [4] | Fab-ZAP endocytosis-mediated cell killing, Bottom (killing rate %) [5] | Fab-ZAP endocytosis-mediated cell killing, EC50 [5] | Fab-ZAP endocytosis-mediated cell killing, Top (killing rate %) [5] |
| --- | --- | --- | --- | --- | --- | --- | --- | --- | --- | --- | --- | --- | --- | --- | --- | --- | --- |
| 0.0582 OD450 | 4.09 µg/mL | 0.0795 OD450 | -124 MFI | 9.74 µg/mL | 722 MFI |  |  |  |  |  | Isotype (antibody) |  |  |  |  |  |  |
| 0.0407 OD450 | 0.00925 µg/mL | 2.02 OD450 | 610 MFI | 0.788 µg/mL | 8340 MFI | 18000 MFI | 0.31 µg/mL | 647000 MFI |  |  | MHB07-PC (Telisotuzumab) (antibody) | 49.7% | 0.0199 nM | 83.2% | 15.4% | 0.0128 nM | 98.3% |
|  |  |  |  |  |  |  |  |  | 3.26 OD450 | 42.3 | MH172-HGF R-7-2-92 (VHH) VHH: QLQLVESGGGLVQAGGSLRLSCAASGRITNTYVMGWFRQAPGKERELQAAITWTVGSTYYVDSVKGRFTISRDNAKNTLYLQMNSLKPEDTAVYYCAASRFSAWPPRGTLGEWNSWGQGTQVTVSS |  |  |  |  |  |  |
